The target in the test is T1, soluble CD22-Fc (R&D Systems) (UniProt P20273 20-687).
T1 construct: Bought reagent used to stain CD22 CARs; not shown: Fc part; detected with anti-human IgG Fc-gamma secondary
T1 sequence (looked up): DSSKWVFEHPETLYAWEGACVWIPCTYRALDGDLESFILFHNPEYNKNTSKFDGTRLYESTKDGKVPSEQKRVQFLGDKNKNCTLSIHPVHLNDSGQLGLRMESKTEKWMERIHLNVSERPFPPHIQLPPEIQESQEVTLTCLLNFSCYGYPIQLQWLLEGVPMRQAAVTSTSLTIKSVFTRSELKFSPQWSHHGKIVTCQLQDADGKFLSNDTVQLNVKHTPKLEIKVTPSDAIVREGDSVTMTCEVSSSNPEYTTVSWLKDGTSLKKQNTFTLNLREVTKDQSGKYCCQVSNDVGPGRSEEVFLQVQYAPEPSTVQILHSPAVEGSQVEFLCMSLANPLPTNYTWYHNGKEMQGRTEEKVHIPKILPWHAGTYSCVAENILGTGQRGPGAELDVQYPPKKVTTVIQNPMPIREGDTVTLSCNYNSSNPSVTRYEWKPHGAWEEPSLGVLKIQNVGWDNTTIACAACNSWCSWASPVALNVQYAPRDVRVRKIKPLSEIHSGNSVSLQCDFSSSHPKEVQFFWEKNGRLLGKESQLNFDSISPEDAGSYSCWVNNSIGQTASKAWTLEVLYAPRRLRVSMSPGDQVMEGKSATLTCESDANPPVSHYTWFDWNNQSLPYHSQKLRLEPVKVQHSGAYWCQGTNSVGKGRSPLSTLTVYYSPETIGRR
The test is described as follows: flow cytometry, soluble CD22-Fc plus anti-human Fc-PE on CAR-transduced primary T cells (FIG. 4). (In general: Flow cytometry measures light scatter and fluorescence of single cells or particles in a stream.)

B1: CD22-65 CAR (other)
chain: EVQLQQSGPGLVKPSQTLSLTCAISGDSMLSNSDTWNWIRQSPSRGLEWLGRTYHRSTWYDDYASSVRGRVSINVDTSKNQYSLQLNAVTPEDTGVYYCARVRLQDGNSWSDAFDVWGQGTMVTVSSGGGGSGGGGSGGGGSQSALTQPASASGSPGQSVTISCTGTSSDVGGYNYVSWYQQHPGKAPKLMIYDVSNRPSGVSNRFSGSKSGNTASLTISGLQAEDEADYYCSSYTSSSTLYVFGTGTQLTVLTTTPAPRPPTPAPTIASQPLSLRPEACRPAAGGAVHTRGLDFACDIYIWAPLAGTCGVLLLSLVITLYCKRGRKKLLYIFKQPFMRPVQTTQEEDGCSCRFPEEEEGGCELRVKFSRSADAPAYKQGQNQLYNELNLGRREEYDVLDKRRGRDPEMGGKPRRKNPQEGLYNELQKDKMAEAYSEIGMKGERRRGKGHDGLYQGLSTATKDTYDALHMQALPPR
notes: also called CD22-65_Zmut
Consider B1, for which the MFI was above 20000.

B2: CD22-53 CAR (other)
chain: EVQLQQSGPGLVKPSQTLSLTCAISGDSVSSNSAAWNWIRQSPSRGLEWLGRTYYRSKWYSDYAVSVKSRITINPDTSKNQFSLQLNSVTPEDTAVYYCARDPYDFWSGYPDAFDIWGQGTMVTVSSGGGGSGGGGSGGGGSQSALTQPASVSGSPGQSITISCTGTSSDVGGYNYVSWYQQHPGKAPKVIISEVNNRPSGVSHRFSGSKSGNTASLTISGLQAEDEADYFCSSYTSGRTLYVFGTGSKVTVLG
notes: Control CD22 CAR; not shown: hinge, transmembrane, 4-1BB and CD3zeta parts of the CAR
With B2, the MFI was above 20000.

B3: CD22-57 CAR (other)
chain: EVQLQQSGPGLVKPSQTLSLTCAISGDSVSNNNAAWNWIRQSPSRGLEWLGRTYHRSTWYNDYVGSVKSRITINPDTSKNQFSLQLNSVTPEDTAVYYCARETDYGDYGAFDIWGQGTTVTVSSGGGGSGGGGSGGGGSQSALTQPASVSGSPGQSITISCTGSRNDIGAYESVSWYQQHPGNAPKLIIHGVNNRPSGVFDRFSVSQSGNTASLTISGLQAEDEADYYCSSHTTTSTLYVFGTGTKVTVL
notes: CAR on primary human T cells; not shown: hinge, transmembrane, 4-1BB and CD3zeta parts of the CAR
Consider B3, for which the MFI was above 20000.

B4: CD22-58 CAR (other)
chain: EVQLQQSGPGLVNPSQTLSITCAISGDSVSSNSAAWNWIRQSPSRGLEWLGRTFYRSKWYNDYAVSVKGRITISPDTSKNQFSLQLNSVTPEDTAVYYCAGGDYYYGLDVWGQGTTVTVSSGGGGSGGGGSGGGGSQSALTQPASVSGSPGQSITISCTGSSSDVGGYNSVSWYQQHPGKAPKLMIYEVINRPSGVSHRFSGSKSGNTASLTISGLQAEDEADYYCSSYTSSSTYVFGTGTKVTVL
notes: as for B3
As for B4, the MFI amounted to 5700.

B5: CD22-60 CAR (other)
chain: EVQLQQSGPGLVKPSQTLSLTCAISGDSVLSNSDTWNWIRQSPSRGLEWLGRTYHRSTWYDDYASSVRGRVSINVDTSKNQYSLQLNAVTPEDTGVYYCARDRLQDGNSWSDAFDVWGQGTMVTVSSGGGGSGGGGSGSGGSQSALTQPASVSGSPGQSITFSCTGTSSDIGGYNYVSWYQQHPGKAPKLMIYEVSNRPSGVSNRFSGTKSGNTASLTISGLQAEDEADYYCSSYTSSSTLYVFGTGTKLTVL
notes: as for B3
For the molecule B5, the MFI is above 20000.

B6: CD22-63 CAR (other)
chain: EVQLQQSGPGLVKPSQTLSLTCAISGDSVLSNSDTWNWIRQSPSRGLEWLGRTYHRSTWYDDYASSVRGRVSINVDTSKNQYSLQLNAVTPEDTGVYYCARDRLQDGNSWSDAFDVWGQGTMVTVSSGGGGSGGGGSGGGGSQSALTQPASVSGSPGQSITISCTGTSSDVGGYNYVSWYQQHPGKAPKLMIYEVSNRPSGVSNRFSGSKSGNTASLTISGLQAEDEADYYCSSYTSSSTLYIFGTGTKVTVL
notes: as for B3
With B6, the MFI is above 20000.

B7: CD22-61 CAR (other)
chain: QVQLQESGPGLVKPSQTLSLTCAISGDSVLSNSDTWNWIRQSPSRGLEWLGRTYHRSTWYDDYASSVRGRVSINVDTSKNQYSLQLNAVTPEDTGVYYCARDRLQDGNSWSDAFDVWGQGTMVTVSSGGGGSGGGGSGSGGSQSALTQPASVSGSPGQSITISCTGTSSDVGGYNYVSWYQQHPGKAPKLMIYEVSNRPSGVSNRFSGSKSGNTASLTISGLQAEDEADYYCSSYTSSSTLYVFGTGTKVTVL
notes: as for B3
On to B7, for which the MFI was above 20000.

B8: CD22-64 CAR (other)
chain: EVQLQQSGPGLVKPSQTLPLTCAISGDSVLSNSDTWNWIRQSPSRGLEWLGRTYHRSTWYDDYASSVRGRVSINVDTSKNQYSLQLNAVTPEDTGVYYCARVRLQDGNSWSDAFDVWGQGTMVTVSSGGGGSGGGGSGGGGPQSALTQPASASGSPGQSVTISCTGTSSDVGGYNYVSWYQQHPGKAPKLMIYDVSNRPSGVSNRFSGSKSGNTASLTISGLQAEDEADYYCSSYTSSSTLYVFGTGTQLTVL
notes: as for B3
On to B8, for which the MFI was above 20000.

(Values after USRE49847 (dated 2024).)
